{"source": "patent US20260055369A1", "about": "(H LEE MOFFITT CANCER CENTER AND RESEARCH INSTITUTE, published 2026)", "key": {"[1]": {"biological_target": "Notch1 on CHO-K1 N1-Gal4 fluorescent reporter cells (UniProt P46531 19-2555, limits assumed)", "sequence (P46531 19-2555 limits assumed)": "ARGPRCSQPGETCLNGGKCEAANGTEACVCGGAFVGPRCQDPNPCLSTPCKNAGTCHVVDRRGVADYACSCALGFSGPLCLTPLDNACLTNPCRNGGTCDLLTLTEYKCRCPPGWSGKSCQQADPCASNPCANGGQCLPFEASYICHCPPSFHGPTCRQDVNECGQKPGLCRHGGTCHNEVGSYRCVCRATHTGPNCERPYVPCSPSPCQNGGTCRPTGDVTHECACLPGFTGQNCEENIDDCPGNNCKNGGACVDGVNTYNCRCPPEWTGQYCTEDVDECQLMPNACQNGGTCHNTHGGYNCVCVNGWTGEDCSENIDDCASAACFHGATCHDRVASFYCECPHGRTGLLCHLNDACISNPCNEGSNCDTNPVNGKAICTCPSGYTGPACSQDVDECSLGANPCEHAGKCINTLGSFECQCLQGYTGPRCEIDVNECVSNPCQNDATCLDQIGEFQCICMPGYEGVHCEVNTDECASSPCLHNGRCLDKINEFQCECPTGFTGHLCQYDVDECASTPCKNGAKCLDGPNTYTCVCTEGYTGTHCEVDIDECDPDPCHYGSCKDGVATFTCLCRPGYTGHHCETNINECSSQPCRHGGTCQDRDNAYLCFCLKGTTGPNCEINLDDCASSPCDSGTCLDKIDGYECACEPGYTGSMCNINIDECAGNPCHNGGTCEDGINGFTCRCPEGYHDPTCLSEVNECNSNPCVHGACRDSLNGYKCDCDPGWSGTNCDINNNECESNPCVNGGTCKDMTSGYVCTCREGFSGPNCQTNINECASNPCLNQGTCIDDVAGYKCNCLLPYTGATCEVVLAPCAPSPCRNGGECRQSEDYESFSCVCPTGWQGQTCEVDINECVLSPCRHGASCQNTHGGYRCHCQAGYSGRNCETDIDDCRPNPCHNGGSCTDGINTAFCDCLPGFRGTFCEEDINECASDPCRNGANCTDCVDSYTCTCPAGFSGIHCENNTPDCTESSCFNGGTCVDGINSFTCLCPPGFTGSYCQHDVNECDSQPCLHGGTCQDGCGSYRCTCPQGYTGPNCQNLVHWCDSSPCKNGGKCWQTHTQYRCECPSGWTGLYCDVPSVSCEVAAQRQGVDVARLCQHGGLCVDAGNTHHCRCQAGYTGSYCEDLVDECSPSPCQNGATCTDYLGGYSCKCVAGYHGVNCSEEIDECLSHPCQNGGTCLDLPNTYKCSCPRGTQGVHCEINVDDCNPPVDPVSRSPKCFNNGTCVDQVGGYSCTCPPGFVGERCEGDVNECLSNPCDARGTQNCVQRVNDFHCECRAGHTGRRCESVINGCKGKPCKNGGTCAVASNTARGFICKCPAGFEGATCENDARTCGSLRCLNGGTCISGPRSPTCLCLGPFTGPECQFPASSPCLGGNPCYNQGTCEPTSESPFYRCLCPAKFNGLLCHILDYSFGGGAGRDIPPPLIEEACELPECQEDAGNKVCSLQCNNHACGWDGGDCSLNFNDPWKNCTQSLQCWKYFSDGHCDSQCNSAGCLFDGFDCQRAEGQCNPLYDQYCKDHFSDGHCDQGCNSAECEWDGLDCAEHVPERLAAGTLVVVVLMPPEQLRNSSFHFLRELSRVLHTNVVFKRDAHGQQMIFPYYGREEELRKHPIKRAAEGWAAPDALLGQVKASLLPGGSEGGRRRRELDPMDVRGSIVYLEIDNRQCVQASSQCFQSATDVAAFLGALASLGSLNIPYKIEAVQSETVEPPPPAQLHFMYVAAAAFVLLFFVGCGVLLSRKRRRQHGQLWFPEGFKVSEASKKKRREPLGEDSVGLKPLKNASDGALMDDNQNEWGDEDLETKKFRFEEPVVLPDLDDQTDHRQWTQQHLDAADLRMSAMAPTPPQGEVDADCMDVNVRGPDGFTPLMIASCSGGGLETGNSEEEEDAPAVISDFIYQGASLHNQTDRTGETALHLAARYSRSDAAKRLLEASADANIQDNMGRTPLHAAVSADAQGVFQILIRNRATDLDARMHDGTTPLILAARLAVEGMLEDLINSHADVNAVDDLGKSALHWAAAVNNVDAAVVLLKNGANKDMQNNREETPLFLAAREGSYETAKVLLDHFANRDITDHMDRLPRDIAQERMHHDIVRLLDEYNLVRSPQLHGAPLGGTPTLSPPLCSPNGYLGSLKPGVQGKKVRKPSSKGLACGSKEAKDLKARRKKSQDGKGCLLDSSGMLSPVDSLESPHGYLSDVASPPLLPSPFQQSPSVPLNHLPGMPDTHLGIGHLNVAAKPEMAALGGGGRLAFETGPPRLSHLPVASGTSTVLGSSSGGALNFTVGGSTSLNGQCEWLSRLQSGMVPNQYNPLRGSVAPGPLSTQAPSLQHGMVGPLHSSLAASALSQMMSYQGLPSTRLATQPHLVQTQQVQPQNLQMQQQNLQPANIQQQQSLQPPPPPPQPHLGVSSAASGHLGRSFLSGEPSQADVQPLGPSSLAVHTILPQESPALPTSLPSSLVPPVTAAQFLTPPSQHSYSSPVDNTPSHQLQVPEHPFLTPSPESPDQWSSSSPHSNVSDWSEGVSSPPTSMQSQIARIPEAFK", "assay": "cell-based or functional assay"}, "[2]": {"biological_target": "T1, hNotch2 (EGF6-13, residues 221-530), biotinylated (human, UniProt Q04721 221-530, Biotinylated in vitro by BirA at the C-terminal BAP-tag (tag not in the letters).)", "T1 construct": "Immobilised on a streptavidin chip for SPR", "T1 sequence": "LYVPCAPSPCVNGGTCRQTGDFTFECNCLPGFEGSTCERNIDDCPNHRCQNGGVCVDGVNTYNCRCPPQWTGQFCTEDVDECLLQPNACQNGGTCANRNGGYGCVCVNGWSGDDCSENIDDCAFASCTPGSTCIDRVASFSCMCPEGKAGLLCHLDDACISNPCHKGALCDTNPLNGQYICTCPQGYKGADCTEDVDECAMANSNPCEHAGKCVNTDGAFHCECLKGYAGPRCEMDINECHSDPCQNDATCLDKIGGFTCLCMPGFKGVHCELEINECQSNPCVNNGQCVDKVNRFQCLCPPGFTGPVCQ", "assay": "SPR, KD of Delta^MAX against KD of WT DLL4", "description": "(§1) Surface plasmon resonance (SPR) was used to determine the binding affinity between Delta^MAX and the ligand-binding regions of Notch1-4. As a basis for comparison, a WT DLL4 construct, a DLL4.v2 construct, and a “DLL4.v1” construct containing the five E12 mutations (G28S, F107L, N118I, H194Y, and L206P) were also generated (FIG. 2A, 10). […] The rapid dissociation of WT DLL4 precluded kinetic fitting of the binding data.\n(§2) Equilibrium dissociation constants were determined by surface plasmon resonance using a Biacore T200 instrument (GE Healthcare). Approximately 100 resonance units (RU) of biotinylated Notch extracellular fragments (Notch1 (EGF6-13), Notch2 (EGF6-13), Notch3 (EGF5-12), Notch4 (7-12), and mouse Notch1 (EGF6-13)) were immobilized on individual flow cells at 5 μl/min using a streptavidin-coated sensor chip (Series S Sensor chip SA, GE Healthcare). Three-fold serial dilutions of recombinant DLL4 proteins (N-EGF5) starting at 50 μM (WT DLL4), 18 μM (DLL4.v2), and 6 μM (DLL4.v1 and Delta^MAX) were flowed over the chip at 25° C. in SPR buffer (20 mM HEPES pH 7.4, 150 mM NaCl, 1 mM calcium chloride, 0.1% BSA supplemented with 0.005% surfactant P20). Association (“on-rate”) and dissociation (“off-rate”) phases were performed at 10 μl/min for 120 seconds and 300 seconds, respectively. […] Data collection rate was performed at 10 Hz, and curves were reference-subtracted from a flow cell containing 100 RU of a negative control non-related protein (biotinylated mouse RNF43 PA domain)."}, "[3]": {"biological_target": "T2, hNotch3 (EGF5-12, residues 197-505), biotinylated (human, UniProt Q9UM47 197-505, Biotinylated in vitro by BirA at the C-terminal BAP-tag (tag not in the letters).)", "T2 construct": "Immobilised on a streptavidin chip for SPR", "T2 sequence": "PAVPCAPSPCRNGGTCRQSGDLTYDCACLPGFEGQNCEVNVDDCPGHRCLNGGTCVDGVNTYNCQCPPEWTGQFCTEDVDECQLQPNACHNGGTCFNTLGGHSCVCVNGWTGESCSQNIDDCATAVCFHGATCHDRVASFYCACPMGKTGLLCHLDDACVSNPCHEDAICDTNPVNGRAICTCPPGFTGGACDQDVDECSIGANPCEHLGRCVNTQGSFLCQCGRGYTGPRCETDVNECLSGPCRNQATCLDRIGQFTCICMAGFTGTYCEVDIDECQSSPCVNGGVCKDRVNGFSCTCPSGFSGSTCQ", "assay": "SPR, KD of Delta^MAX against KD of WT DLL4", "description": "as §1, §2"}, "[4]": {"biological_target": "T3, hNotch4 (EGF7-12, residues 276-511), biotinylated (human, UniProt Q99466 276-511, Biotinylated in vitro by BirA at the C-terminal BAP-tag (tag not in the letters).)", "T3 construct": "Immobilised on a streptavidin chip for SPR; also called Notch4 (7-12)", "T3 sequence": "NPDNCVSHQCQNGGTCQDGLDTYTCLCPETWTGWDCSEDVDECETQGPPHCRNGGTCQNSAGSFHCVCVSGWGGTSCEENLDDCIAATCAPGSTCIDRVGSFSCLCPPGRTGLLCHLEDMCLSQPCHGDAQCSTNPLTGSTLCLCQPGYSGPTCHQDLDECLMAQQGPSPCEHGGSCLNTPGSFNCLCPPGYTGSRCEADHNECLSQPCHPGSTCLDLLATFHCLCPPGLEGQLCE", "assay": "SPR, KD of Delta^MAX against KD of WT DLL4", "description": "as §1, §2"}, "[5]": {"biological_target": "T1, hNotch2 (EGF6-13, residues 221-530), …", "assay": "SPR (Biacore T200), biotinylated Notch fragment on streptavidin chip, DLL4 protein (N-EGF5) in flow, 1:1 model", "description": "(§3) The rapid dissociation of WT DLL4 precluded kinetic fitting of the binding data.\n(§4) Equilibrium dissociation constants were determined by surface plasmon resonance using a Biacore T200 instrument (GE Healthcare). Approximately 100 resonance units (RU) of biotinylated Notch extracellular fragments (Notch1 (EGF6-13), Notch2 (EGF6-13), Notch3 (EGF5-12), Notch4 (7-12), and mouse Notch1 (EGF6-13)) were immobilized on individual flow cells at 5 μl/min using a streptavidin-coated sensor chip (Series S Sensor chip SA, GE Healthcare). Three-fold serial dilutions of recombinant DLL4 proteins (N-EGF5) starting at 50 μM (WT DLL4), 18 μM (DLL4.v2), and 6 μM (DLL4.v1 and Delta^MAX) were flowed over the chip at 25° C. in SPR buffer (20 mM HEPES pH 7.4, 150 mM NaCl, 1 mM calcium chloride, 0.1% BSA supplemented with 0.005% surfactant P20). Association (“on-rate”) and dissociation (“off-rate”) phases were performed at 10 μl/min for 120 seconds and 300 seconds, respectively. […] Data collection rate was performed at 10 Hz, and curves were reference-subtracted from a flow cell containing 100 RU of a negative control non-related protein (biotinylated mouse RNF43 PA domain). The maximum RU for each experiment was normalized to a value of 100% and plotted as a function of concentration using Prism 9 software (GraphPad). Steady-state binding and kinetic curves were fitted using the Biacore T200 evaluation software to a 1:1 Langmuir model to determine the KD values."}, "[6]": {"biological_target": "T3, hNotch4 (EGF7-12, residues 276-511), …", "assay": "SPR (Biacore T200), biotinylated Notch fragment on streptavidin chip, DLL4 protein (N-EGF5) in flow, 1:1 model", "description": "as §3, §4"}}, "data": [{"binder": "Delta^MAX (N-EGF5), non-biotinylated (ligand, also called DLL4^MAX; soluble Delta^MAX) SSVFQLQLQEFINERGVLASGRPCEPGCRTFFRVCLKHFQAVVSPGPCTFGTVSTPVLGTNSFAVRDDSSGGGRNPLQLPLNFTWPGTFSLIIEAWHAPGDDLRPEALPPDALISKFAIQGSLAVGQNWLLDEQTSTLTRLRYSYRVICSDNYYGDNCSRLCKKRNDYFGHYVCQPDGNPSCLPGWTGEYCQQPICLSGCHEQNGYCSKPAECLCRPGWQGRLCNECIPHPGCRHGTCSTPWQCLCDEGWGGLYCDQDLNYCTHHSPCKNGATCRNSGPRSYTCTCRPGYTGVDCELELSECDSNPCRNGGSCKDQEDGYHCLCPPGYYGLHCEHSTLSCADSPCFNGGSCRERNQGANYACECPPNFTGSNCEHHHHHHHH", "values": [{"measurement": "EC50 of Notch1 activation, fluorescent reporter cells, ligand non-specifically adsorbed to plates", "setting": "[1]", "result": 0.009, "unit": "ng/mm^2"}, {"measurement": "IC50 of inhibition of Notch1 activation on WT DLL4-coated plates (comparison with DAPT and BB-94)", "setting": "[1]", "result": 1, "unit": "nM"}, {"measurement": "IC50 of inhibition of Notch1 reporter signalling in co-culture with HEK293T cells expressing WT DLL4", "setting": "[1]", "result": 400, "unit": "nM"}, {"measurement": "IC50 of inhibition of Notch1 reporter signalling on WT DLL4-coated plates", "setting": "[1]", "result": 0.6, "unit": "nM"}, {"measurement": "improvement in Notch activation efficiency against WT DLL4 (adsorbed ligand)", "setting": "[1]", "result": 250, "unit": "fold"}, {"measurement": "fold enhancement of affinity compared to WT DLL4", "setting": "[2]", "result": 670, "unit": "fold"}, {"measurement": "fold enhancement of affinity compared to WT DLL4", "setting": "[3]", "result": 591, "unit": "fold"}, {"measurement": "fold enhancement of affinity compared to WT DLL4", "setting": "[4]", "result": 532, "unit": "fold"}, {"measurement": "Kd", "setting": "[5]", "result": 54, "unit": "nM"}, {"measurement": "Kd", "setting": "[6]", "result": 24, "unit": "nM"}]}]}
